Assay results reported in patent publication US20220195407, “OPTIMIZATION OF ENGINEERED MEGANUCLEASES FOR RECOGNITION SEQUENCES” (Precision BioSciences, Inc., published 2022).

How the values were obtained:
Assay in all cases: cell_activity; CHO iGFFP reporter
[1] = target: T1, LOX 3-4m.1125 (artificial (I-CreI derived))
T1 chain: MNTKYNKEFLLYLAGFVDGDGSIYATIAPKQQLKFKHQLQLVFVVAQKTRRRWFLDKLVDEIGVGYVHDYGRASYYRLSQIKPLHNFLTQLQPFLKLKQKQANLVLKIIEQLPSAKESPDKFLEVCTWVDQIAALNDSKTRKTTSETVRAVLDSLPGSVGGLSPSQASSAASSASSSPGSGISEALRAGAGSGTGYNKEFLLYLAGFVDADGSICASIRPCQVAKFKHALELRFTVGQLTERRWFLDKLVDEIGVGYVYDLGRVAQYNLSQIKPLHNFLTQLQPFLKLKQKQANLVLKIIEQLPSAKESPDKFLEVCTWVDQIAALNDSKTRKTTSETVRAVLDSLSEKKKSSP
Description: (§1) A CHO cell reporter system (see WO/2012/167192, FIG. 3) was used to determine whether the engineered meganucleases generated in these studies could recognize and cleave the modified LOX 3-4 recognition sequences in Table 87. To perform the assay, a pair of CHO cell reporter lines were produced, which carried a non-functional Green Fluorescent Protein (GFP) gene expression cassette integrated into the genome of the cell. The GFP gene in each cell line was interrupted by a pair of recognition sequences such that intracellular cleavage of either recognition sequence by a meganuclease would stimulate a homologous recombination event resulting in a functional GFP gene. In both cell lines, one of the recognition sequences was derived from the LOX 3-4 recognition sequence (i.e., those sequences disclosed in Table 87), and the second recognition sequence was specifically recognized by a control meganuclease called “CHO 23/24.” CHO reporter cells comprising a recognition sequence derived from the LOX 3-4 recognition sequence and the CHO 23/24 recognition sequence are referred to herein as “test cells.”
(§2) Novel engineered meganucleases derived from the LOX 3-4x.109 meganuclease were prepared by making amino acid substitutions at one or more positions in the first subunit and one or more positions in the second subunit. These engineered meganucleases were then evaluated for cleavage of the LOX 3-4 recognition sequence modified to have an ACGC center sequence (SEQ ID NO: 90) in the CHO reporter assay according to Example 1.

[2] = target: T2, LOX 3-4m.1123 (artificial (I-CreI derived))
T2 chain: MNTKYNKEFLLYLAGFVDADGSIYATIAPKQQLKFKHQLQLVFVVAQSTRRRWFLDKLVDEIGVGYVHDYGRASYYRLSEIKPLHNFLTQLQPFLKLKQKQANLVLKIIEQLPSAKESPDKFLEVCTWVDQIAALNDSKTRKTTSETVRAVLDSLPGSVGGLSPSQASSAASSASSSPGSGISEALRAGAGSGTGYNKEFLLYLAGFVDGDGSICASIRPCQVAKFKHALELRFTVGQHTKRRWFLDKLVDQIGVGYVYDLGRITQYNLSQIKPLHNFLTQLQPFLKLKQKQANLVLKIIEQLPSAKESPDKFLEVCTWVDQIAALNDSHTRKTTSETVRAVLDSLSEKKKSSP
Description: as §1, §2

[3] = target: T3, LOX 3-4m.1052 (artificial (I-CreI derived))
T3 chain: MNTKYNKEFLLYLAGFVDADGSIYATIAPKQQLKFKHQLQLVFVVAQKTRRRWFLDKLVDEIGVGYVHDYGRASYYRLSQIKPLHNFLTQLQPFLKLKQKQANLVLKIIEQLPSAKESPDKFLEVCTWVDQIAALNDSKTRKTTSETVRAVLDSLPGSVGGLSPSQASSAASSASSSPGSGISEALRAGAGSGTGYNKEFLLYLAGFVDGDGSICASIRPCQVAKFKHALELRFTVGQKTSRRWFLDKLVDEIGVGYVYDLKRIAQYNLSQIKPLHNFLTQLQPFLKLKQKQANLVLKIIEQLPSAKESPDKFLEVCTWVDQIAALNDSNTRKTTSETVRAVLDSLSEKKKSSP
Description: as §1, §2

[4] = target: T4, LOX 3-4m.1069 (artificial (I-CreI derived))
T4 chain: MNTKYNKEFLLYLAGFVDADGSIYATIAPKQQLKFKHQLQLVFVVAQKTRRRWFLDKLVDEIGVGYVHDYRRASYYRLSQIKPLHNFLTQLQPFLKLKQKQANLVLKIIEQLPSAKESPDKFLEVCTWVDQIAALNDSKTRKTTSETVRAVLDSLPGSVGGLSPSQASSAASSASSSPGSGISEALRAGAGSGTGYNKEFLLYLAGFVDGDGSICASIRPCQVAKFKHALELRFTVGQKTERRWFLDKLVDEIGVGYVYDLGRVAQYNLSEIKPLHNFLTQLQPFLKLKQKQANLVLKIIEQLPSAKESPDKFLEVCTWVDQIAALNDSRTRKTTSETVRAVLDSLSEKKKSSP
Description: as §1, §2

[5] = target: T5, LOX 3-4m.1876 (artificial (I-CreI derived))
T5 chain: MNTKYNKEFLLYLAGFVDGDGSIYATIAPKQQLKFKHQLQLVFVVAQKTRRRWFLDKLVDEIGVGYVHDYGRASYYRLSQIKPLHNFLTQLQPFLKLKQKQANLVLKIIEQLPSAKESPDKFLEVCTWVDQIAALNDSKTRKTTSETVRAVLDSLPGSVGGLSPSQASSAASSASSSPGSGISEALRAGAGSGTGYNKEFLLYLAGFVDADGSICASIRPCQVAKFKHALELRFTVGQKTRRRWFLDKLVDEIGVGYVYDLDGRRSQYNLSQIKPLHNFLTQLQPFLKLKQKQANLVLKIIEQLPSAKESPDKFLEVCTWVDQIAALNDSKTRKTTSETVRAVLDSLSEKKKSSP
Description: as §1
(§3) Novel engineered meganucleases derived from the LOX 3-4x.109 meganuclease were prepared by making amino acid substitutions at one or more positions in the first subunit and one or more positions in the second subunit. In addition, an R residue was inserted following position 264, which corresponds to position 73 of wild-type I-CreI.

[6] = target: T6, LOX 3-4m.1941 (artificial (I-CreI derived))
T6 chain: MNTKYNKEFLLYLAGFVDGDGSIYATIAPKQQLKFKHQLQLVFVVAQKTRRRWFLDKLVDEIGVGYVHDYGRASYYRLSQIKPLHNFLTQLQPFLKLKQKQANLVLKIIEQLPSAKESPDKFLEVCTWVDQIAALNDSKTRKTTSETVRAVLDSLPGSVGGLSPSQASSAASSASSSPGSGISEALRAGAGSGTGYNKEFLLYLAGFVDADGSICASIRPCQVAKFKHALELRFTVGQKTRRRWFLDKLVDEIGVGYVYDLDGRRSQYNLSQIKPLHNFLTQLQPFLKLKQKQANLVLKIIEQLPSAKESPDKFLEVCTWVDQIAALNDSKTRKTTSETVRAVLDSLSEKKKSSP
Description: as §1, §3

[7] = target: T7, LOX 3-4m.1946 (artificial (I-CreI derived))
T7 chain: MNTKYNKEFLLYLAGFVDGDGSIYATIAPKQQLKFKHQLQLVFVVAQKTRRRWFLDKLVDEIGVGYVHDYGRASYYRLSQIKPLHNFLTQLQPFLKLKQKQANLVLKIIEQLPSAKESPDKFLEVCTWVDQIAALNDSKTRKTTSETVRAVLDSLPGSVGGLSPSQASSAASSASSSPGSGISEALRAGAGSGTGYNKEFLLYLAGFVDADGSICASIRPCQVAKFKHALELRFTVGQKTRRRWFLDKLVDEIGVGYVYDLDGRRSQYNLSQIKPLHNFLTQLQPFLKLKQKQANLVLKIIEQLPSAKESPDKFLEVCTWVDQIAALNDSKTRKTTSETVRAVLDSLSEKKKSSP
Description: as §1, §3

[8] = target: T8, LOX 3-4m.1947 (artificial (I-CreI derived))
T8 chain: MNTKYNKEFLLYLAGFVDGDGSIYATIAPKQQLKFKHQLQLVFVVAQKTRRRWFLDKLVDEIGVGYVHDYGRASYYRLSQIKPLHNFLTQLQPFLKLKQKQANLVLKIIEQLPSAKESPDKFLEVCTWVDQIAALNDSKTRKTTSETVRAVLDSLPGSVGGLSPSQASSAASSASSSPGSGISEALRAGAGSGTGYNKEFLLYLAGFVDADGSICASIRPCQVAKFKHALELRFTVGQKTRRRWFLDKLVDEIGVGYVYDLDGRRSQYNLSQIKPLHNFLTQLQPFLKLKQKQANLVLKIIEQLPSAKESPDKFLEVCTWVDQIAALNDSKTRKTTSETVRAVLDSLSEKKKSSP
Description: as §1, §3

[9] = target: T9, LOX 3-4m.1225 (artificial (I-CreI derived))
T9 chain: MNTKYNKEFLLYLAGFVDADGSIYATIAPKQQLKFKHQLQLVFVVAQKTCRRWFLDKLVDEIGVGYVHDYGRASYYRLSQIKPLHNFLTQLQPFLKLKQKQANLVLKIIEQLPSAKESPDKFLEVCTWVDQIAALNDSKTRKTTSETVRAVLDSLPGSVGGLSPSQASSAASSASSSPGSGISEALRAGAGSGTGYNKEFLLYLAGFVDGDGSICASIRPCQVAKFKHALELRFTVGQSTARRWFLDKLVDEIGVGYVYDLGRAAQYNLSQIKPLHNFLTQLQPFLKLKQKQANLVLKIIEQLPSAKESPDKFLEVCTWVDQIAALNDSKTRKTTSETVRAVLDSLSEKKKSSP
Description: as §1
as §2, with “ACGT” for “ACGC”, “136)” for “90)”

[10] = target: T10, LOX 3-4m.1153 (artificial (I-CreI derived))
T10 chain: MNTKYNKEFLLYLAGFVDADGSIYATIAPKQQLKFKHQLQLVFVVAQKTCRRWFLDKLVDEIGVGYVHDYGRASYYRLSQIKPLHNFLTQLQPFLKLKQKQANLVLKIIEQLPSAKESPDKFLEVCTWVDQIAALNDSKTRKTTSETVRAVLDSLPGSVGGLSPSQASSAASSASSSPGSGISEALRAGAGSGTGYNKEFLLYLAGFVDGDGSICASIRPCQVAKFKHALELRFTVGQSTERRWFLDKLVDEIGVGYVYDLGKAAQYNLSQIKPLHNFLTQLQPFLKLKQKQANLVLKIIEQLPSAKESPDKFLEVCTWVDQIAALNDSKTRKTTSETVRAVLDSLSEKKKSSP
Description: as §1
as §2, with “ACGT” for “ACGC”, “136)” for “90)”

[11] = target: T11, LOX 3-4m.1206 (artificial (I-CreI derived))
T11 chain: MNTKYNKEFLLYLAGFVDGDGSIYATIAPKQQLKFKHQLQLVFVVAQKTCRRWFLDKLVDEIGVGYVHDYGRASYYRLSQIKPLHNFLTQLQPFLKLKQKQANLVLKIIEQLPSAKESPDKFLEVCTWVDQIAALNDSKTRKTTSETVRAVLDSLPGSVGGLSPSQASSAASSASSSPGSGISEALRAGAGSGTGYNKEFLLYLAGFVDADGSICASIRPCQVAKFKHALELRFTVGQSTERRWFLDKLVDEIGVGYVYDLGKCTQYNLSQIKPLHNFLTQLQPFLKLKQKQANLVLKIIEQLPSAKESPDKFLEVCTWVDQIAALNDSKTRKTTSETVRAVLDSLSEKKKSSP
Description: as §1
as §2, with “ACGT” for “ACGC”, “136)” for “90)”

[12] = target: T12, LOX 3-4m.1158 (artificial (I-CreI derived))
T12 chain: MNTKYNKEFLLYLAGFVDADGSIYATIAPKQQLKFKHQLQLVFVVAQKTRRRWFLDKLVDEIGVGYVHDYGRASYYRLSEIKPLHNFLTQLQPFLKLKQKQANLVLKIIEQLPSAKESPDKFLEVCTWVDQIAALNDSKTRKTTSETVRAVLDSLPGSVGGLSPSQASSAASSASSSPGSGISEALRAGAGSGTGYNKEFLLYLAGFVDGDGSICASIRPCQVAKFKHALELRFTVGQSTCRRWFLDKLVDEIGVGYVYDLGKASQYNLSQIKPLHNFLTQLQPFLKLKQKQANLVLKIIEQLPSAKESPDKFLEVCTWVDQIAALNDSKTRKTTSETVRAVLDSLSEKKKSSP
Description: as §1
as §2, with “ACGT” for “ACGC”, “136)” for “90)”

B1: LOX 3-4 ACGC (dsDNA)
DNA 1: GTATAGCATACGCTATACGAAG
DNA 2: CTTCGTATAGCGTATGCTATAC
- activity [1]: 10.4 % GFP
- activity [2]: 9.56 % GFP
- activity [3]: 9.34 % GFP
- activity [4]: 10.3 % GFP

B2: LOX 3-4 ACGG (dsDNA)
DNA 1: GTATAGCATACGGTATACGAAG
DNA 2: CTTCGTATACCGTATGCTATAC
- activity [5]: 9.6 % GFP
- activity [6]: 10.1 % GFP
- activity [7]: 10.8 % GFP
- activity [8]: 10.5 % GFP

B3: LOX 3-4 ACGT (dsDNA)
DNA 1: GTATAGCATACGTTATACGAAG
DNA 2: CTTCGTATAACGTATGCTATAC
- activity [9]: 10.6 % GFP
- activity [10]: 10.3 % GFP
- activity [11]: 9.84 % GFP
- activity [12]: 9.19 % GFP
